Starred links: 1 amine or outer side, 2 acyl side, 3 side chain; linkers in the order of their positions; H or OH if unused. Non-standard residues stand in square brackets, D forms with d. Groups on a side chain read outwards from the residue. No end group written: not given here. *: point of attachment. C18 diacid = O=C(O)CCCCCCCCCCCCCCCCC(=O)*; γGlu = O=C(O)[C@H](CCC(=O)[*:2])N[*:1]; αMeF = C[C@](N)(Cc1ccccc1)C(=O)O; AEEA = NCCOCCOCC(=O)O; Aib = CC(C)(N)C(=O)O
Tests used:
[1] = target: human GLP-1 receptor (human, UniProt P43220); assay: cell-based or functional assay
[2] = target: human glucagon receptor (human, UniProt P47871); assay: cell-based or functional assay

cAMP production EC50 [1] [nM]	cAMP production EC50 [2] [nM]	Binder
0.0124	0.0472	H[Aib]QGTFTSDVSK[αMeF]LDTK([AEEA-AEEA-γGlu-C18 diacid])RARDFVQWLLE[Aib]G-NH2 (N-terminus assumed; SMILES CC(C)C[C@H](NC(=O)[C@H](Cc1c[nH]c2ccccc12)NC(=O)[C@H](CCC(N)=O)NC(=O)[C@@H](NC(=O)[C@H](Cc1ccccc1)NC(=O)[C@H](CC(=O)O)NC(=O)[C@H](CCCNC(=N)N)NC(=O)[C@H](C)NC(=O)[C@H](CCCNC(=N)N)NC(=O)[C@H](CCCCNC(=O)COCCOCCNC(=O)COCCOCCNC(=O)CC[C@H](NC(=O)CCCCCCCCCCCCCCCCC(=O)O)C(=O)O)NC(=O)[C@@H](NC(=O)[C@H](CC(=O)O)NC(=O)[C@H](CC(C)C)NC(=O)[C@](C)(Cc1ccccc1)NC(=O)[C@H](CCCCN)NC(=O)[C@H](CO)NC(=O)[C@@H](NC(=O)[C@H](CC(=O)O)NC(=O)[C@H](CO)NC(=O)[C@@H](NC(=O)[C@H](Cc1ccccc1)NC(=O)[C@@H](NC(=O)CNC(=O)[C@H](CCC(N)=O)NC(=O)C(C)(C)NC(=O)[C@@H](N)Cc1c[nH]cn1)[C@@H](C)O)[C@@H](C)O)C(C)C)[C@@H](C)O)C(C)C)C(=O)N[C@@H](CC(C)C)C(=O)N[C@@H](CCC(=O)O)C(=O)NC(C)(C)C(=O)NCC(N)=O) [Peptide 427]
0.0073	0.0612	H[Aib]QGTFTSDVSK[αMeF]LDKK([AEEA-AEEA-γGlu-C18 diacid])RAQDFVRWLLR[Aib]K-OH (N-terminus assumed; SMILES CC(C)C[C@H](NC(=O)[C@H](Cc1c[nH]c2ccccc12)NC(=O)[C@H](CCCNC(=N)N)NC(=O)[C@@H](NC(=O)[C@H](Cc1ccccc1)NC(=O)[C@H](CC(=O)O)NC(=O)[C@H](CCC(N)=O)NC(=O)[C@H](C)NC(=O)[C@H](CCCNC(=N)N)NC(=O)[C@H](CCCCNC(=O)COCCOCCNC(=O)COCCOCCNC(=O)CC[C@H](NC(=O)CCCCCCCCCCCCCCCCC(=O)O)C(=O)O)NC(=O)[C@H](CCCCN)NC(=O)[C@H](CC(=O)O)NC(=O)[C@H](CC(C)C)NC(=O)[C@](C)(Cc1ccccc1)NC(=O)[C@H](CCCCN)NC(=O)[C@H](CO)NC(=O)[C@@H](NC(=O)[C@H](CC(=O)O)NC(=O)[C@H](CO)NC(=O)[C@@H](NC(=O)[C@H](Cc1ccccc1)NC(=O)[C@@H](NC(=O)CNC(=O)[C@H](CCC(N)=O)NC(=O)C(C)(C)NC(=O)[C@@H](N)Cc1c[nH]cn1)[C@@H](C)O)[C@@H](C)O)C(C)C)C(C)C)C(=O)N[C@@H](CC(C)C)C(=O)N[C@@H](CCCNC(=N)N)C(=O)NC(C)(C)C(=O)N[C@@H](CCCCN)C(=O)O) [Peptide 426]
0.0115	0.827	H[Aib]QGTFTSDVSK[αMeF]LDKK([AEEA-AEEA-γGlu-C18 diacid])RAQDFVRWLKA[Aib]G-OH (N-terminus assumed; SMILES CC(C)C[C@H](NC(=O)[C@H](Cc1c[nH]c2ccccc12)NC(=O)[C@H](CCCNC(=N)N)NC(=O)[C@@H](NC(=O)[C@H](Cc1ccccc1)NC(=O)[C@H](CC(=O)O)NC(=O)[C@H](CCC(N)=O)NC(=O)[C@H](C)NC(=O)[C@H](CCCNC(=N)N)NC(=O)[C@H](CCCCNC(=O)COCCOCCNC(=O)COCCOCCNC(=O)CC[C@H](NC(=O)CCCCCCCCCCCCCCCCC(=O)O)C(=O)O)NC(=O)[C@H](CCCCN)NC(=O)[C@H](CC(=O)O)NC(=O)[C@H](CC(C)C)NC(=O)[C@](C)(Cc1ccccc1)NC(=O)[C@H](CCCCN)NC(=O)[C@H](CO)NC(=O)[C@@H](NC(=O)[C@H](CC(=O)O)NC(=O)[C@H](CO)NC(=O)[C@@H](NC(=O)[C@H](Cc1ccccc1)NC(=O)[C@@H](NC(=O)CNC(=O)[C@H](CCC(N)=O)NC(=O)C(C)(C)NC(=O)[C@@H](N)Cc1c[nH]cn1)[C@@H](C)O)[C@@H](C)O)C(C)C)C(C)C)C(=O)N[C@@H](CCCCN)C(=O)N[C@@H](C)C(=O)NC(C)(C)C(=O)NCC(=O)O) [Peptide 425]

Further lines, the binder ahead of its results:

Binder	cAMP production EC50 [1] [nM]	cAMP production EC50 [2] [nM]
H[Aib]QGTFTSDVSK[αMeF]LDRK([AEEA-AEEA-γGlu-C18 diacid])RAQDFVRWLL[Aib]TE-NH2 (N-terminus assumed; SMILES CC(C)C[C@H](NC(=O)[C@H](Cc1c[nH]c2ccccc12)NC(=O)[C@H](CCCNC(=N)N)NC(=O)[C@@H](NC(=O)[C@H](Cc1ccccc1)NC(=O)[C@H](CC(=O)O)NC(=O)[C@H](CCC(N)=O)NC(=O)[C@H](C)NC(=O)[C@H](CCCNC(=N)N)NC(=O)[C@H](CCCCNC(=O)COCCOCCNC(=O)COCCOCCNC(=O)CC[C@H](NC(=O)CCCCCCCCCCCCCCCCC(=O)O)C(=O)O)NC(=O)[C@H](CCCNC(=N)N)NC(=O)[C@H](CC(=O)O)NC(=O)[C@H](CC(C)C)NC(=O)[C@](C)(Cc1ccccc1)NC(=O)[C@H](CCCCN)NC(=O)[C@H](CO)NC(=O)[C@@H](NC(=O)[C@H](CC(=O)O)NC(=O)[C@H](CO)NC(=O)[C@@H](NC(=O)[C@H](Cc1ccccc1)NC(=O)[C@@H](NC(=O)CNC(=O)[C@H](CCC(N)=O)NC(=O)C(C)(C)NC(=O)[C@@H](N)Cc1c[nH]cn1)[C@@H](C)O)[C@@H](C)O)C(C)C)C(C)C)C(=O)N[C@@H](CC(C)C)C(=O)NC(C)(C)C(=O)N[C@H](C(=O)N[C@@H](CCC(=O)O)C(N)=O)[C@@H](C)O) [Peptide 422]	0.0276	0.123
H[Aib]QGTFTSDVSK[αMeF]LDKK([AEEA-AEEA-γGlu-C18 diacid])RAQDFVRWLK[Aib]TE-OH (N-terminus assumed; SMILES CC(C)C[C@H](NC(=O)[C@H](Cc1c[nH]c2ccccc12)NC(=O)[C@H](CCCNC(=N)N)NC(=O)[C@@H](NC(=O)[C@H](Cc1ccccc1)NC(=O)[C@H](CC(=O)O)NC(=O)[C@H](CCC(N)=O)NC(=O)[C@H](C)NC(=O)[C@H](CCCNC(=N)N)NC(=O)[C@H](CCCCNC(=O)COCCOCCNC(=O)COCCOCCNC(=O)CC[C@H](NC(=O)CCCCCCCCCCCCCCCCC(=O)O)C(=O)O)NC(=O)[C@H](CCCCN)NC(=O)[C@H](CC(=O)O)NC(=O)[C@H](CC(C)C)NC(=O)[C@](C)(Cc1ccccc1)NC(=O)[C@H](CCCCN)NC(=O)[C@H](CO)NC(=O)[C@@H](NC(=O)[C@H](CC(=O)O)NC(=O)[C@H](CO)NC(=O)[C@@H](NC(=O)[C@H](Cc1ccccc1)NC(=O)[C@@H](NC(=O)CNC(=O)[C@H](CCC(N)=O)NC(=O)C(C)(C)NC(=O)[C@@H](N)Cc1c[nH]cn1)[C@@H](C)O)[C@@H](C)O)C(C)C)C(C)C)C(=O)N[C@@H](CCCCN)C(=O)NC(C)(C)C(=O)N[C@H](C(=O)N[C@@H](CCC(=O)O)C(=O)O)[C@@H](C)O) [Peptide 423]	0.0261	2.22
H[Aib]QGTFTSDVSK[αMeF]LDRK([AEEA-AEEA-γGlu-C18 diacid])RAQDFVRWLL[Aib]TE-OH (N-terminus assumed; SMILES CC(C)C[C@H](NC(=O)[C@H](Cc1c[nH]c2ccccc12)NC(=O)[C@H](CCCNC(=N)N)NC(=O)[C@@H](NC(=O)[C@H](Cc1ccccc1)NC(=O)[C@H](CC(=O)O)NC(=O)[C@H](CCC(N)=O)NC(=O)[C@H](C)NC(=O)[C@H](CCCNC(=N)N)NC(=O)[C@H](CCCCNC(=O)COCCOCCNC(=O)COCCOCCNC(=O)CC[C@H](NC(=O)CCCCCCCCCCCCCCCCC(=O)O)C(=O)O)NC(=O)[C@H](CCCNC(=N)N)NC(=O)[C@H](CC(=O)O)NC(=O)[C@H](CC(C)C)NC(=O)[C@](C)(Cc1ccccc1)NC(=O)[C@H](CCCCN)NC(=O)[C@H](CO)NC(=O)[C@@H](NC(=O)[C@H](CC(=O)O)NC(=O)[C@H](CO)NC(=O)[C@@H](NC(=O)[C@H](Cc1ccccc1)NC(=O)[C@@H](NC(=O)CNC(=O)[C@H](CCC(N)=O)NC(=O)C(C)(C)NC(=O)[C@@H](N)Cc1c[nH]cn1)[C@@H](C)O)[C@@H](C)O)C(C)C)C(C)C)C(=O)N[C@@H](CC(C)C)C(=O)NC(C)(C)C(=O)N[C@H](C(=O)N[C@@H](CCC(=O)O)C(=O)O)[C@@H](C)O) [Peptide 421]	0.0873	0.18
H[Aib]QGTFTSDVSK[αMeF]LDKK([AEEA-AEEA-γGlu-C18 diacid])RAQDFVRWLL[Aib]TK-OH (N-terminus assumed; SMILES CC(C)C[C@H](NC(=O)[C@H](Cc1c[nH]c2ccccc12)NC(=O)[C@H](CCCNC(=N)N)NC(=O)[C@@H](NC(=O)[C@H](Cc1ccccc1)NC(=O)[C@H](CC(=O)O)NC(=O)[C@H](CCC(N)=O)NC(=O)[C@H](C)NC(=O)[C@H](CCCNC(=N)N)NC(=O)[C@H](CCCCNC(=O)COCCOCCNC(=O)COCCOCCNC(=O)CC[C@H](NC(=O)CCCCCCCCCCCCCCCCC(=O)O)C(=O)O)NC(=O)[C@H](CCCCN)NC(=O)[C@H](CC(=O)O)NC(=O)[C@H](CC(C)C)NC(=O)[C@](C)(Cc1ccccc1)NC(=O)[C@H](CCCCN)NC(=O)[C@H](CO)NC(=O)[C@@H](NC(=O)[C@H](CC(=O)O)NC(=O)[C@H](CO)NC(=O)[C@@H](NC(=O)[C@H](Cc1ccccc1)NC(=O)[C@@H](NC(=O)CNC(=O)[C@H](CCC(N)=O)NC(=O)C(C)(C)NC(=O)[C@@H](N)Cc1c[nH]cn1)[C@@H](C)O)[C@@H](C)O)C(C)C)C(C)C)C(=O)N[C@@H](CC(C)C)C(=O)NC(C)(C)C(=O)N[C@H](C(=O)N[C@@H](CCCCN)C(=O)O)[C@@H](C)O) [Peptide 424]	0.0155	0.129

From patent US12630600B2 (MEDIMMUNE LIMITED, priority 2022, dated 2026)
